Experiment [1] deals with T1, cyno TfR extracellular domain (analogous construct to human TfR ecd) (cynomolgus monkey, UniProt Q5RDH6 87-760 (Pongo abelii entry)).
T1 construct: also called cynoTfR ecd
T1 chain: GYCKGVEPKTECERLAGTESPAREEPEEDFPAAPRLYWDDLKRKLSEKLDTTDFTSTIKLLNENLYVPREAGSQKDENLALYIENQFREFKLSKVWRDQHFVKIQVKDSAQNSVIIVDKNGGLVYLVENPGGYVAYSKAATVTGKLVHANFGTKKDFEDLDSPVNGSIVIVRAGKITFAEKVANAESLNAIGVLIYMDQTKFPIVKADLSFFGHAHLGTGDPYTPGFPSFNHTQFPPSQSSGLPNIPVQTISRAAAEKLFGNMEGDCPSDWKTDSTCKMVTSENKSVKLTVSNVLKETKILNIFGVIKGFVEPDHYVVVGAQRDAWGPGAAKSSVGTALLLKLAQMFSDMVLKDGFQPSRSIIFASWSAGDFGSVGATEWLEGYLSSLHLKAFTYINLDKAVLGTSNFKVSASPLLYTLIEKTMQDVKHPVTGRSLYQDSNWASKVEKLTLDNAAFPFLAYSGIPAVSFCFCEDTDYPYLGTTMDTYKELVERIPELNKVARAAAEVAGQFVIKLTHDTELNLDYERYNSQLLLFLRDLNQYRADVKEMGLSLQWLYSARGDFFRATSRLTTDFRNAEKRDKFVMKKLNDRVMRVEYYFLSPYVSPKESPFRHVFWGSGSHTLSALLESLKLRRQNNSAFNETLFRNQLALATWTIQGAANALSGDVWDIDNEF
The experiment can be described thus: ELISA, IgG. A general note: In an ELISA, binding on a coated surface is turned into a signal by an enzyme label.
Experimental: (§1) Affinity variants were generated by making individual alanine substitutions in CDR-L3 or CDR-H3 using standard techniques. These variants were screened as IgG by ELISA and SPR to identify positions important for binding to human and cyno TfR; the monovalent affinity of selected variants as Fab was also determined. […] Plates were washed with PBS/0.05% Tween 20 and blocked using Superblock blocking buffer in PBS (Thermo Scientific, Hudson, N.H.). Supernatants containing expressed IgG were diluted serially 1:5 and added to the plate for 1 h. […] Plates were washed with PBS/0.05% Tween 20 and 1:1000 diluted HRP-Goat-anti kappa (Southern Biotech) was added the plate and incubated for 1 h at room temperature. Plates were washed with PBS/0.05% Tween 20 and detected using TMB substrate (BioFX Laboratories, Owings Mills).

Experiment [2] has as its target T2, human TfR extracellular domain with N-terminal His tag (human, UniProt P02786 89-760).
T2 construct: Biotinylated in some assays; also called huTfR; HuTfR
The experiment can be described thus: ELISA, IgG.
Experimental: as §1

In experiment [3] the target is T1, cyno TfR extracellular domain …. Put plainly: SPR, IgG. (In general: In SPR one partner is held on a chip, and binding of the other changes the refractive index at the surface.)
Experimental: (§2) Antibody affinities were measured using surface plasmon resonance (“SPR”) (Biacore™, GE Healthcare). Anti-His antibody (Qiagen) was coupled onto four different flow cells of a BIACORE™ CM5 sensor chip (Biacore, Inc., Piscataway, N.J.) at between 6000 and 8000 RU. Immobilization was achieved by random coupling through amino groups using a protocol provided by the manufacturer. 10×HBS-P (Biacore, Inc., Piscataway, N.J.) was diluted in water and served as the dilution and running buffer. Purified human or cyno TfR was captured, followed by a 3-fold dilution series of IgG or Fab that was injected at a flow rate of 30 ml/min using the single cycle kinetics method. Affinity constants were determined using a simple 1:1 Langmuir binding model or using a steady state model when kₒₙ or koff was beyond the detection limit. The equilibrium dissociation constant (KD) was calculated as the ratio of association rate constant (kₒₙ) and dissociation rate constant (koff).
(§3) In both cases, the SPR experiments were performed as described above.
Experiment [4] has as its target T2, human TfR extracellular domain with …. Put plainly: SPR, IgG.
Experimental: as §2, §3
The target in experiment [5] is T1, cyno TfR extracellular domain …. Put plainly: SPR, IgG.
Experimental: as §2
The target of experiment [6] is T2, human TfR extracellular domain with …. The experiment can be described thus: SPR, IgG. The source holds these as a separate data set.
Experimental: as §2
Experiment [7] has as its target BACE1 in primary mouse cortical neurons (mouse, UniProt P56818 46-501). Put plainly: cell-based or functional assay.
For experiment [8], the target named is T3, murine BACE1 ECD.
T3 construct: analyte of the Octet assay (200 nM) and enzyme of the first short substrate assay
T3 sequence (single chain, as listed by the source limits assumed): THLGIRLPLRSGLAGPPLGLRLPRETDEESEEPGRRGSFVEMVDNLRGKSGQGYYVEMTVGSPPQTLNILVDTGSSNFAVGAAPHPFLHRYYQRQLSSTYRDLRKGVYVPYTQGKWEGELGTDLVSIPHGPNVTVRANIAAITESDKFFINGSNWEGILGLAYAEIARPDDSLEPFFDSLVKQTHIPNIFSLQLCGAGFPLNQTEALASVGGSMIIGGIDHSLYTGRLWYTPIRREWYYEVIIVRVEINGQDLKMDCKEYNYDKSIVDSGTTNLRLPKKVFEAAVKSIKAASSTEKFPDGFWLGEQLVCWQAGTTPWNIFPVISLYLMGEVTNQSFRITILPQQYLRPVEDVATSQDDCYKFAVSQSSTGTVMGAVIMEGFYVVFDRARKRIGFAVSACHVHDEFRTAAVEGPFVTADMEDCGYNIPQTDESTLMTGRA
The experiment can be described thus: Octet, pH 7.5.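 Further: antibodies captured on anti-human capture sensor tips, dissociation monitored in PBS with BSA, Kd obtained from kinetic fit to a one-to-one binding model.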 On the technique in general: Biolayer interferometry detects binding as a change in optical thickness at a sensor tip.
Experimental: (§4) Anti-BACE1 antibodies were loaded onto anti-human capture (AHC) sensors (tips) followed by 60 seconds baseline in assay buffer. […] Tips were transferred to assay buffer for 5 minutes, 30 minutes, or 120 minutes depending on the off-rate, for off-rate measurement. Assay buffer was either PBS+0.1% BSA, pH 7.5; or PBS+0.1% BSA, pH 5.0. Kinetics were analyzed using a 1:1 binding model.

Experiment [9] has as its target T4, human BACE1 ECD.
T4 construct: analyte of the Octet assay (200 nM) and enzyme of the first short substrate assay; also called human BACE1 extracellular domain
Put plainly: Octet, pH 7.5.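 Further: antibodies captured on anti-human capture sensor tips, dissociation monitored in PBS with BSA, Kd obtained from kinetic fit to a one-to-one binding model.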
Experimental: as §4

The target of experiment [10] is T5, human BACE1 (R&D Systems) (human, UniProt P56817).
T5 construct: recombinant, commercial (R&D Systems)
T5 sequence (P56817 22-457 limits assumed): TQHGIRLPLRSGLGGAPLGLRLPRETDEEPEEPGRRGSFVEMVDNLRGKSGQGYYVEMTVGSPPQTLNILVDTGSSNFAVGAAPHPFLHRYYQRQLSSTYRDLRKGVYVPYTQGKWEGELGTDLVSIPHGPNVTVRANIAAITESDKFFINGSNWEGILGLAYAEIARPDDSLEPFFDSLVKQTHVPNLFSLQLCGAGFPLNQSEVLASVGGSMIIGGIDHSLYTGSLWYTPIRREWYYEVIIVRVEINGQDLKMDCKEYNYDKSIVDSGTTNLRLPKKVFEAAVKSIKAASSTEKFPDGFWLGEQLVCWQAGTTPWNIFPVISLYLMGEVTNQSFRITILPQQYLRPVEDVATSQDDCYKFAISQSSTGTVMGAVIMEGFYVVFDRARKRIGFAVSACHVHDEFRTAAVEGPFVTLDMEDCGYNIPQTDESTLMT
Put plainly: SPR (Biacore).
Experimental: Binding affinities of certain anti-BACE1 IgGs were measured by surface plasmon resonance (SRP) using a BIAcore™-T100 instrument. […] Association rates (kon) and dissociation rates (koff) were calculated using a simple one-to-one Langmuir binding model (BIAcore Evaluation Software version 3.2). The equilibrium dissociation constant (KD) was calculated as the ratio koff/kon.

The target in experiment [11] is T3, murine BACE1 ECD. Put plainly: Octet, pH 5.0.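 Further: antibodies captured on anti-human capture sensor tips, dissociation monitored in PBS with BSA buffer, kinetics fitted with a one-to-one binding model.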
Experimental: as §4
Experiment [12] has as its target T4, human BACE1 ECD. The experiment can be described thus: Octet, pH 5.0.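 Further: antibodies captured on anti-human capture sensor tips, dissociation monitored in PBS with BSA buffer, kinetics fitted with a one-to-one binding model.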
Experimental: as §4

Read-outs that look alike come from different tables or passages of the source.

T2 sequence (P02786 89-760 G142S): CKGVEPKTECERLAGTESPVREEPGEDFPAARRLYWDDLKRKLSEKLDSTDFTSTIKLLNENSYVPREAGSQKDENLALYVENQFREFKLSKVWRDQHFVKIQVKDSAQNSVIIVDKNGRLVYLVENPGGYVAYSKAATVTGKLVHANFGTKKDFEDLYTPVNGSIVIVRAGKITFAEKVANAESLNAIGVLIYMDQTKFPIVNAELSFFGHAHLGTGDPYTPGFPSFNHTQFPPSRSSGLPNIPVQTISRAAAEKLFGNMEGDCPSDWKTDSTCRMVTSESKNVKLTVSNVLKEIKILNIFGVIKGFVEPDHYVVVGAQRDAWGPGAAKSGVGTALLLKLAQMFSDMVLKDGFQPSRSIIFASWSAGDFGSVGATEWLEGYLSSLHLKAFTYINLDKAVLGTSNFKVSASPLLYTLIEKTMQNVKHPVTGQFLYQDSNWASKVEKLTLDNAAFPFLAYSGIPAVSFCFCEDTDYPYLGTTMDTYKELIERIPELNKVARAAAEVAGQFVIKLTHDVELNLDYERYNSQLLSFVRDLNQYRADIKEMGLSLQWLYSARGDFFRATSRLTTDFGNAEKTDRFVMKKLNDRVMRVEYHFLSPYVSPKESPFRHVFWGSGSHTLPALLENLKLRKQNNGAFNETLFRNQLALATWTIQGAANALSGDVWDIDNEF
T4 sequence (single chain, as listed by the source limits assumed): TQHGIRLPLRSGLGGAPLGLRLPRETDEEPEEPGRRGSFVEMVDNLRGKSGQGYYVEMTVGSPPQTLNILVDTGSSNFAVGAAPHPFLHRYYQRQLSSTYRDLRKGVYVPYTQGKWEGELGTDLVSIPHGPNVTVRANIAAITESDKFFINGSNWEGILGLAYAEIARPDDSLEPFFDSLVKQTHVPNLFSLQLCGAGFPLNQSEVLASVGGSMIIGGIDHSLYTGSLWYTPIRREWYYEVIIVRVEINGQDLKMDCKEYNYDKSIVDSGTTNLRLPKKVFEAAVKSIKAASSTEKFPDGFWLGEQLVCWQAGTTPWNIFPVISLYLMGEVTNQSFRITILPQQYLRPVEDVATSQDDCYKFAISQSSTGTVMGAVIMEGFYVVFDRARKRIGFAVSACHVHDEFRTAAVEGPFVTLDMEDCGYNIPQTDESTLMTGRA
Sequence of BACE1 in primary mouse cortical neurons (P56818 46-501): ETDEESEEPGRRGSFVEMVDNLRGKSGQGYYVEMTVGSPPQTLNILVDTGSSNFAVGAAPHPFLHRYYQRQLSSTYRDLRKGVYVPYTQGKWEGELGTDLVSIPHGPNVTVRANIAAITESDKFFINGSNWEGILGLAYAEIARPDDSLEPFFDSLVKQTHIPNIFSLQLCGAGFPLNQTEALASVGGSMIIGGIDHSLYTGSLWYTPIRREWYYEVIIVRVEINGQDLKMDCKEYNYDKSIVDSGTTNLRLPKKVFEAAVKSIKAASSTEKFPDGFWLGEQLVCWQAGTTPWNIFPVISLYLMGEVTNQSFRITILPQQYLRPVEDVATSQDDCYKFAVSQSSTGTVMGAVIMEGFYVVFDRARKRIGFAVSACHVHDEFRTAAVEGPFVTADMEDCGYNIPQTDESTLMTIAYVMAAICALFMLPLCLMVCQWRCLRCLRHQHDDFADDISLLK

B1: H90A (antibody, V domains shown)
VH: EVQLVQSGAEVKKPGASVKVSCKASGYTFTSYWMHWVRQAPGQRLEWIGEINPTNGRTNYIEKFKSRATLTVDKSASTAYMELSSLRSEDTAVYYCARGTRAYHYWGQGTMVTVSS
VL: DIQMTQSPSSLSASVGDRVTITCRASDNLYSNLAWYQQKPGKSPKLLVYDATNLADGVPSRFSGSGSGTDYTLTISSLQPEDFATYYCQAFWGTPLTFGQGTKVEIK
notes: also called 15G11.v5 H90A (CDR-L3) IgG
What is called EC50 is the concentration that produces a half-maximal response. A high value points to a need for much substance. Take B1: the concentration giving a half-maximal response (EC50) in experiment [1] is 0.024 mg/L; in [2], 0.013 mg/L.

B2: L96A (antibody, V domains shown)
VH: EVQLVQSGAEVKKPGASVKVSCKASGYTFTSYWMHWVRQAPGQRLEWIGEINPTNGRTNYIEKFKSRATLTVDKSASTAYMELSSLRSEDTAVYYCARGTRAYHYWGQGTMVTVSS
VL: DIQMTQSPSSLSASVGDRVTITCRASDNLYSNLAWYQQKPGKSPKLLVYDATNLADGVPSRFSGSGSGTDYTLTISSLQPEDFATYYCQHFWGTPATFGQGTKVEIK
notes: also called 15G11.v5 L96A (CDR-L3) IgG
Turning to B2, the EC50 in experiment [1] stood at 0.018 mg/L; in [2], 0.0099 mg/L.

B3: H101A (antibody, V domains shown)
VH: EVQLVQSGAEVKKPGASVKVSCKASGYTFTSYWMHWVRQAPGQRLEWIGEINPTNGRTNYIEKFKSRATLTVDKSASTAYMELSSLRSEDTAVYYCARGTRAYAYWGQGTMVTVSS
VL: DIQMTQSPSSLSASVGDRVTITCRASDNLYSNLAWYQQKPGKSPKLLVYDATNLADGVPSRFSGSGSGTDYTLTISSLQPEDFATYYCQHFWGTPLTFGQGTKVEIK
notes: also called 15G11.v5 H101A (CDR-H3) IgG; copies: 2 + 2
Turning to B3, the EC50 stood at 0.0216 mg/L in experiment [1] and 0.0142 mg/L in experiment [2].

B4: T94A (antibody, V domains shown)
VH: EVQLVQSGAEVKKPGASVKVSCKASGYTFTSYWMHWVRQAPGQRLEWIGEINPTNGRTNYIEKFKSRATLTVDKSASTAYMELSSLRSEDTAVYYCARGTRAYHYWGQGTMVTVSS
VL: DIQMTQSPSSLSASVGDRVTITCRASDNLYSNLAWYQQKPGKSPKLLVYDATNLADGVPSRFSGSGSGTDYTLTISSLQPEDFATYYCQHFWGAPLTFGQGTKVEIK
notes: also called 15G11.v5 T94A (CDR-L3) IgG
As to B4, the figures for the EC50 in experiment [1] and in experiment [2] were 0.0293 mg/L and 0.0168 mg/L, respectively.

B5: T97A (antibody, V domains shown)
VH: EVQLVQSGAEVKKPGASVKVSCKASGYTFTSYWMHWVRQAPGQRLEWIGEINPTNGRTNYIEKFKSRATLTVDKSASTAYMELSSLRSEDTAVYYCARGTRAYHYWGQGTMVTVSS
VL: DIQMTQSPSSLSASVGDRVTITCRASDNLYSNLAWYQQKPGKSPKLLVYDATNLADGVPSRFSGSGSGTDYTLTISSLQPEDFATYYCQHFWGTPLAFGQGTKVEIK
notes: also called 15G11.v5 T97A (CDR-L3) IgG
As for B5, the EC50 in [1] came out at 0.0157 mg/L; in [2] it was 0.0134 mg/L.

B6: 15G11 (antibody, V domains shown)
VH: QVQLQQPGAELVKPGASVKLSCKASGYTFTSYWMHWVKQRPGQGLEWIGEINPTNGRTNYIEKFKSKATLTVDKSSSTAYMQLSSLTSEDSAVYYCARGTRAYHYWGQGTSVTVSS
VL: DIQMTQSPASLSVSVGETVTITCRASDNLYSNLAWYQQKQGKSPQLLVYDATNLADGVPSRFSGSGSGTQYSLKINSLQSEDFGTYYCQHFWGTPLTFGAGTKLELK
notes: Mouse hybridoma antibody; also called clone 15G11
A word on the Kd: it is the constant that tells how readily two partners part at equilibrium. A lower Kd goes with higher affinity. For the molecule B6, the Kd in experiment [3] turned out to be 2.6 nM; in experiment [4], 0.992 nM; in experiment [5], 2.6 nM; in experiment [6], 0.992 nM.

B7: 16G4 (antibody, V domains shown)
VH: QVQLQQPGAELVKPGASVKLSCKASGYTFTSYWMHWVKQRPGQGLEWIGEINPSNGRTNYNETFKSKATLTVDKSSSTAYMQLSSLTSEDSAVYYCARGTRAYHYWGQGTSVTVSS
VL: DIQMTQSPASLSVSVGETVTITCRASDNIYSNLAWYQQKQGKSPQLLVYAVTNLADGVPSRFSGSGSGTQYSLKINSLQSEDFGSYYCQHFWGTPLTFGAGTKLELK
notes: Mouse hybridoma antibody; also called clone 16G4
B7: the Kd in [5] came out at 22.4 nM; in experiment [6], 3.4 nM.

B8: 6299 (antibody, V domains shown)
VH: QVQLVQSGAEVKKPGSSVKVSCKASGGTLSGYAISWVRQAPGQGLEWMGNIIPGFGTANYAQKSQGRVTITADESTSTAYMELSSLRSEDTAVYYCARSGGTRYGMLDVWGQGTMVTVSS
VL: EIVMTQSPATLSVSPGERATLSCRASQSVGSNLAWYQQKPGQAPRLLIYGASTRATGIPARFSGSGSGTEFTLTISSLQSEDFAVYYCQQSYLWPPRTFGGGTKVEIK
notes: anti-BACE1 IgG
In the case of B8, the “IC50, Abeta x-40 in mouse cortical neurons” value in experiment [7] came out at 10.4 nM. Besides, the “maximal % inhibition of Abeta x-40” value in experiment [7] is 70%. Further, the dissociation constant Kd is below 0.41 nM in experiment [8]; below 0.41 nM in experiment [9]; 5.82 nM in [10]; below 0.46 nM in experiment [11]; below 0.28 nM in [12].

B9: 7G7 (antibody, V domains shown)
VH: QVQLQQPGSELVRPGASVKLSCKASGYTFTSYWMHWVKQRHGQGLEWIGNIYPGSGSTKYDERFKSKGTLTVDTSSSTAYMHLSSLTSEDSAVYYCTRGGYDSRAWFAYWGQGTLVTVSA
VL: DIVLTQSPASLAVSLGQRATISCRARQSVSTSSYSFMHWYRQKAGQPPKLLIKYASIQESGVPARFSGSGSGTDFTLNILPVEEEDTATYYCQHTWEIPFTFGSGTKLEIK
notes: Mouse hybridoma antibody; also called clone 7G7
With B9, the results for the Kd in experiment [5] and in experiment [6] were 262 nM and 45.7 nM, respectively.

B10: 1B12 (antibody, V domains shown)
VH: EVKLVESGGGLVQPGGFLKLSCATSGFTFSDYYMYWVRQTPEKRLEWVASISNGGDNTYYPDTVKGRFTISRDNAKNTLYLQMSRLKSEDTAMYYCARQGALYDGYYRGAMDYWGQGTSVTVSS
VL: QIVLTQSPAIMSASLGGRVTMTCTTSSSVPSSYFHWYQQKPGSSPKLWIYSTSNLASGVPARFSGSGSGTSYSLTISSMEAEDAATYYCHQYHRSPFTFGSGTKLEIK
notes: Mouse hybridoma antibody; also called clone 1B12
With B10, the Kd was 43.4 nM in [5] and 2.03 nM in [6].

B11: 8A2 (antibody, V domains shown)
VH: QVQLQQSGPELVRPGVSVKISCKGSGYTFTDYGMHWVKQSHAKSLEWIGVISPYSGRTNYNQNFKGKATMTVDKSSSTAYLELARLTSEDSAIYYCARGLSGNYVVDYWGQGTSVTVSS
VL: DIVLTQSPASLAVSLGQRATISCRASESVDSYGNSFMHWYQQKPGQPPKLLIYRASNLESGIPARFSGSGSRTDFTLTINPVEADDVATYYCQQSNEGPPTFGGGTKLEIK
notes: Mouse hybridoma antibody; also called clone 8A2
Consider B11, for which the values for the Kd in experiment [5] and in experiment [6] were 0.904 nM and 0.179 nM, respectively.

B12: 10D11 (antibody, V domains shown)
VH: QVQLQQSGPELVRPGVAVKISCKGSGYKFIDYGMHWVKQSHTKSLQWIGVISPYSGKTNYSQKFKGKATMTVDKSSSTAYMELARLTSEDSAIYYCARGLSGNFVMDFWGQGTSVTVSS
VL: DIVLTQSPASLAVSLGQRATISCRASESVDSYGPSFMHWYQQKPGQPPKLLIYRASNLESGIPARFSGSGSRTDFTLTINPVEADDVATYYCQHSNEDPPTFGGGTRLEIK
notes: Mouse hybridoma antibody; also called clone 10D11
Regarding B12, the Kd in [5] was found to be 89.9 nM; in experiment [6], 2.08 nM.

B13: 13D4 (antibody, V domains shown)
VH: QVQLQQSGAELMKPGASVKISCKAAGYTFSNYWIEWVKQRPGHGLEWIGEILPGSGSTKYNEKFKGKATFTADTSSNTAYMQLSSLTSEDSAVYYCARRGGYGYDGEFAYWGQGTLVTVSA
VL: DIQMTQTTSSLSASLGDRVTINCRAGQDITNYLNWFQQKPDGTVKLLIYYTSRLHSGVPSRFSGSGSGTDYSLTITNLEQEDIATYFCQQANTLPYTFGGGTKLEIK
notes: Mouse hybridoma antibody; also called clone 13D4
Take B13: the Kd in experiment [5] is 8.47 nM; in [6], 9.5 nM.

These data come from patent publication US20180057604A1 (Genentech, published 2018).
